Reference: US20120107330A1 (published 2012)
Where a chain is given by its changes, count along the chain named. One block for each binder: values may come before it.

Tests used:
[1] = biological target: T1, human serum albumin (HSA, Sigma-Aldrich) (human, UniProt P02768 25-609); assay: BIAcore, HSA on CM5 chip
T1 construct: also called human albumin
Procedure: (§1) FIG. 23. BIAcore analysis for binding of DOM0100-AlbudAb in-line fusions to human serum albumin (HSA). HSA (Sigma-Aldrich) was coated on a BIAcore CM5 chip using EDC/NHS chemistry according to manufacturer's instructions. Subsequently, the DMS constructs, each consisting N-terminally to C-terminally of an anti-TNFR1 dAb-Linker-AlbudAb and identified in Table 6, were injected at 1 μM over the HSA surface and binding was monitored. […] The corresponding BIAcore trace for each DMS clone is indicated with an arrow.

[2] = biological target: T2, mouse serum albumin (MSA, Sigma-Aldrich) (mouse, UniProt P07724 25-608); assay: BIAcore, MSA on CM5 chip
T2 construct: also called mouse albumin
Procedure: as §1, with “22.” for “23.”, “mouse” for “human”, “(MSA). MSA” for “(HSA). HSA”, “MSA” for “HSA”
After expression and purification, all constructs were tested on the BIAcore for binding to both mouse and human serum albumin. The off-rates were determined and used to discriminate between the AlbudAbs for their suitability in prolonging the half-life of the fusion molecule. Whereas the linker had little influence on the affinity of the AlbudAb for albumin, a significant difference existed between the dAbs and their albumin affinity. The best AlbudAb for mouse binding was DOM7h-11-15 followed by DOM7m-16 and DOM7h-11-12 (FIG. 22).

[3] = biological target: T3, mouse TNFR1 on L929 cells (mouse, UniProt P25118 30-454); assay: cell-based or functional assay
T3 sequence (looked up): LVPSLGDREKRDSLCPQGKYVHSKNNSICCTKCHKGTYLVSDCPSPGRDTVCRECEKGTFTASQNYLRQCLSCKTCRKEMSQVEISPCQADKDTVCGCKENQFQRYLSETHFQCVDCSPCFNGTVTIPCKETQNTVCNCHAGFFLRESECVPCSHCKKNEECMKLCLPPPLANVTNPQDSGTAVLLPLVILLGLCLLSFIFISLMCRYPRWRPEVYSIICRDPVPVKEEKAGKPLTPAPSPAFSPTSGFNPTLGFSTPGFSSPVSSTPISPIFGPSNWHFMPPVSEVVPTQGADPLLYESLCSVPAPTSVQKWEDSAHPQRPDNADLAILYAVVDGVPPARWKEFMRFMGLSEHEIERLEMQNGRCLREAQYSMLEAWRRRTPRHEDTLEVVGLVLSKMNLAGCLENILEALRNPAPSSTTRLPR

[4] = biological target: T4, human TNFR1 on MRC-5 cells (human, UniProt P19438 30-455); assay: cell-based or functional assay
T4 sequence (looked up): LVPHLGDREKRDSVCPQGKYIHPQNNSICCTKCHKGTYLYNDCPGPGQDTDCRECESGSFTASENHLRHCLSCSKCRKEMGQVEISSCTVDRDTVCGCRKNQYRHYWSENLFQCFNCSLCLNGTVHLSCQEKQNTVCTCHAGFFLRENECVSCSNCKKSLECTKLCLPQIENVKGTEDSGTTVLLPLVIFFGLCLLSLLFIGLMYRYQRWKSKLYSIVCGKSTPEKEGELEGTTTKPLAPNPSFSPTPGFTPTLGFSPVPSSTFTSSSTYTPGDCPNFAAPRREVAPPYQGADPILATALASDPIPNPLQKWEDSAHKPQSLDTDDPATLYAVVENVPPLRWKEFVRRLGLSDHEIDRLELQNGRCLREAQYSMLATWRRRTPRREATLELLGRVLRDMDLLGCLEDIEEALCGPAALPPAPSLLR

[5] = biological target: T5, Cynomologus monkey TNFR1 on CYNOM-K1 cells (Cynomolgus monkey, UniProt Q2PFV5 30-455); assay: cell-based or functional assay
T5 sequence: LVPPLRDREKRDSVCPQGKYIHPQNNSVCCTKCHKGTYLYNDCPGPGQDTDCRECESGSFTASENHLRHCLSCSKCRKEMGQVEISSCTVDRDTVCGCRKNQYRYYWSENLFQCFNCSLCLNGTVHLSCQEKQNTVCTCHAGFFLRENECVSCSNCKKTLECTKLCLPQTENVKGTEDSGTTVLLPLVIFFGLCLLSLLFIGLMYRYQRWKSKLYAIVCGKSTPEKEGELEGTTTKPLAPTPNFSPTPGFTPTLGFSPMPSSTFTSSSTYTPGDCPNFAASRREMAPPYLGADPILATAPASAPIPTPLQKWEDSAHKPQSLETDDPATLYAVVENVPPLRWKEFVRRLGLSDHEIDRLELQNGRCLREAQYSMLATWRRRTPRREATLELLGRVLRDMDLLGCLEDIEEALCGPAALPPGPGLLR

[6] = biological target: T6, mouse TNFR1 (recombinant, R&D Systems cat no. 425-R1-050/CF, biotinylated) (mouse, UniProt P25118 22-212, biotinylated with EZ-Link NHS-LC-LC-biotin); assay: BIAcore, mouse TNFR1 on SA chip
T6 construct: also called murine TNFR1; biotinylated mouse TNFR1
T6 sequence (looked up): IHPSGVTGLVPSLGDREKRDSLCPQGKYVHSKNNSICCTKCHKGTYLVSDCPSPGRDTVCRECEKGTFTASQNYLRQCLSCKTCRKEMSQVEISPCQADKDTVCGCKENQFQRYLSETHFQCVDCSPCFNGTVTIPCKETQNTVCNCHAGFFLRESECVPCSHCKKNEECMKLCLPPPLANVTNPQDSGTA
Description: (§2) BIAcore was done to determine the association and dissociation rates of the different dAbs and in that way establish their binding affinity for both human and mouse TNFR1. Experiments were done using biotinylated TNFR1 (R&D Systems), of the respective species, coupled to streptavidin-coated BIAcore chips followed by injection of a concentration range of the dAbs.

[7] = biological target: T7, human TNFR1 (recombinant, R&D Systems cat no. 636-R1/CF, biotinylated) (human, UniProt P19438 30-211, limits assumed, biotinylated with EZ-Link NHS-LC-LC-biotin); assay: BIAcore, human TNFR1 on SA chip
T7 construct: it is not tied to the BIAcore reagent; also called p55; hTNFR1
T7 sequence (looked up): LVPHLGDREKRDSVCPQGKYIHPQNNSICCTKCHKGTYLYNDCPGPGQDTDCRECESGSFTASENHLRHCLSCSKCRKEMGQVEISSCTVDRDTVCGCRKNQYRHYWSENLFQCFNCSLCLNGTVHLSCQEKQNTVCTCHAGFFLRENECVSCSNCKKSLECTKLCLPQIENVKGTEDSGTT
Description: as §2

T1 sequence (P02768 25-609 limits assumed): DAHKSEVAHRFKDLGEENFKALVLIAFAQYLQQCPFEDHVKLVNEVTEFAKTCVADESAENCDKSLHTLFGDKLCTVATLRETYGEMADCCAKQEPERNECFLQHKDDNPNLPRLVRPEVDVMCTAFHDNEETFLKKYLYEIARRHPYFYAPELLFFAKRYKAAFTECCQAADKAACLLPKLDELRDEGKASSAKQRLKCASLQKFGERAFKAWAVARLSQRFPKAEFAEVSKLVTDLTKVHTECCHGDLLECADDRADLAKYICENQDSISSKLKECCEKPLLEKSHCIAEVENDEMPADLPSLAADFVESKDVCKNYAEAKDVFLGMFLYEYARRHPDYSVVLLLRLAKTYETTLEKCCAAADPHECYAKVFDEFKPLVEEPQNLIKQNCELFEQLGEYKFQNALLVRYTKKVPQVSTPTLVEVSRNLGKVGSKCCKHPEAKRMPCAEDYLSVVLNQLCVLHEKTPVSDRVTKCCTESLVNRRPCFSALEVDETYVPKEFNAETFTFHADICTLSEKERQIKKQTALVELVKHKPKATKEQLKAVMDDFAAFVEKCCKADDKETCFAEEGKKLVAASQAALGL

koff [1]: 0.019 s⁻¹ | koff [2]: 0.16 s⁻¹
B1: DMS0190 (bispecific antibody)
chain: EVQLLESGGGLVQPGGSLRLSCAASGFTFVKYSMGWVRQAPGKGPEWVSQISNTGDRTYYADSVKGRFTISRDNSKNTLYLQMNSLRAEDTAVYYCAIYTGRWEPFDYWGQGTLVTVSSASTSGPSDIQMTQSPSSLSASVGDRVTITCRASRPIGTTLSWYQQKPGKAPKLLILWNSRLQSGVPSRFSGSGSGTDFTLTISSLQPEDFATYYCAQAGTHPTTFGQGTKVEIKRAAAEQKLISEEDLN
notes: anti-TNFR1 dAb / AlbudAb in-line fusion

binding result [1]: no binding (tested: 1 µM) | koff [2]: 0.11 s⁻¹
B2: DMS0191 (bispecific antibody)
chain: EVQLLESGGGLVQPGGSLRLSCAASGFTFVKYSMGWVRQAPGKGPEWVSQISNTGDRTYYADSVKGRFTISRDNSKNTLYLQMNSLRAEDTAVYYCAIYTGRWEPFDYWGQGTLVTVSSASTDIQMTQSPSSLSASVGDRVTITCRASQSIIKHLKWYQQKPGKAPKLLIYGASRLQSGVPSRFSGSGSGTDFTLTISSLQPEDFATYYCQQGTRWPQTFGQGTKVEIKRAAAEQKLISEEDLN
notes: as for B1

koff [1]: 0.017 s⁻¹ | koff [2]: 0.13 s⁻¹
B3: DMS0189 (bispecific antibody)
chain: EVQLLESGGGLVQPGGSLRLSCAASGFTFVKYSMGWVRQAPGKGPEWVSQISNTGDRTYYADSVKGRFTISRDNSKNTLYLQMNSLRAEDTAVYYCAIYTGRWEPFDYWGQGTLVTVSSASTDIQMTQSPSSLSASVGDRVTITCRASRPIGTTLSWYQQKPGKAPKLLILWNSRLQSGVPSRFSGSGSGTDFTLTISSLQPEDFATYYCAQAGTHPTTFGQGTKVEIKRAAAEQKLISEEDLN
notes: as for B1

Mouse L929 ND50 [3]: 28 nM | Human MRC5 ND50 [4]: 1.1 nM | Cynomologus CYNOM-K1 ND50 [5]: 1.8 nM | Kd [6]: 4.4 nM | koff [6]: 0.0003 s⁻¹ | kon [6]: 70000 M⁻¹ s⁻¹ | Kd [7]: 0.27 nM | koff [7]: 3.7e-05 s⁻¹ | kon [7]: 140000 M⁻¹ s⁻¹
B4: DOM1h-574-139 (other)
VH: EVQLLESGGGLVQPGGSLRLSCAASGFTFLKYSMGWVRQAPGKGLEWVSQISDTADRTYYAHSVKGRFTISRDNSKNTLYLQMNSLRAEDTAVYYCAIYTGRWAPFEYWGQGTLVTVSS
notes: VH dAb

Mouse L929 ND50 [3]: 20 nM | Human MRC5 ND50 [4]: 1.8 nM | Cynomologus CYNOM-K1 ND50 [5]: 2.3 nM | Kd [6]: 2.8 nM | koff [6]: 0.00033 s⁻¹ | kon [6]: 120000 M⁻¹ s⁻¹ | Kd [7]: 0.23 nM | koff [7]: 5.5e-05 s⁻¹ | kon [7]: 240000 M⁻¹ s⁻¹
B5: DOM1h-574-109 (other)
VH: B4 VH with L30V, A104V
notes: VH dAb

Mouse L929 ND50 [3]: 110 nM | Human MRC5 ND50 [4]: 2.1 nM | Cynomologus CYNOM-K1 ND50 [5]: 1.7 nM | Kd [6]: 5.2 nM | koff [6]: 0.00075 s⁻¹ | kon [6]: 140000 M⁻¹ s⁻¹ | Kd [7]: 0.34 nM | koff [7]: 8.8e-05 s⁻¹ | kon [7]: 260000 M⁻¹ s⁻¹
B6: DOM1h-574-133 (other)
VH: B4 VH with L30V, A61D, A104E, E107V
notes: VH dAb

Mouse L929 ND50 [3]: 22 nM | Human MRC5 ND50 [4]: 0.9 nM | Kd [6]: 2.1 nM | koff [6]: 0.0003 s⁻¹ | kon [6]: 140000 M⁻¹ s⁻¹ | Kd [7]: 0.15 nM | koff [7]: 4.3e-05 s⁻¹ | kon [7]: 300000 M⁻¹ s⁻¹
B7: DOM1h-574-156 (other)
VH: B4 VH with L30F, A104V
notes: VH dAb

Mouse L929 ND50 [3]: 23 nM | Human MRC5 ND50 [4]: 1.4 nM | Cynomologus CYNOM-K1 ND50 [5]: 1.2 nM | Kd [6]: 2.4 nM | koff [6]: 0.0003 s⁻¹ | kon [6]: 130000 M⁻¹ s⁻¹ | Kd [7]: 0.15 nM | koff [7]: 3.8e-05 s⁻¹ | kon [7]: 250000 M⁻¹ s⁻¹
B8: DOM1h-574-138 (other)
VH: B4 VH with L30F
notes: VH dAb

Mouse L929 ND50 [3]: 67 nM | Human MRC5 ND50 [4]: 2.1 nM | Cynomologus CYNOM-K1 ND50 [5]: 1.6 nM | Kd [6]: 3.7 nM | koff [6]: 0.00033 s⁻¹ | kon [6]: 110000 M⁻¹ s⁻¹ | Kd [7]: 0.18 nM | koff [7]: 4.3e-05 s⁻¹ | kon [7]: 240000 M⁻¹ s⁻¹
B9: DOM1h-574-155 (other)
VH: B4 VH with A104V
notes: VH dAb

Mouse L929 ND50 [3]: 27 nM | Human MRC5 ND50 [4]: 1.2 nM | Kd [6]: 2.5 nM | koff [6]: 0.00034 s⁻¹ | kon [6]: 140000 M⁻¹ s⁻¹ | Kd [7]: 0.15 nM | koff [7]: 4.4e-05 s⁻¹ | kon [7]: 290000 M⁻¹ s⁻¹
B10: DOM1h-574-162 (other)
VH: B4 VH with L30F, A61S, A104V
notes: VH dAb

Mouse L929 ND50 [3]: 47 nM | Human MRC5 ND50 [4]: 1.8 nM | Cynomologus CYNOM-K1 ND50 [5]: 1.5 nM | Kd [6]: 3.8 nM | koff [6]: 0.00045 s⁻¹ | kon [6]: 110000 M⁻¹ s⁻¹ | Kd [7]: 0.21 nM | koff [7]: 5.2e-05 s⁻¹ | kon [7]: 250000 M⁻¹ s⁻¹
B11: DOM1h-574-135 (other)
VH: B4 VH with L30V, A61T, A104V
notes: VH dAb

binding result [1]: no binding (tested: 1 µM) | koff [2]: 0.09 s⁻¹
B12: DMS0192 (bispecific antibody)
chain: EVQLLESGGGLVQPGGSLRLSCAASGFTFVKYSMGWVRQAPGKGPEWVSQISNTGDRTYYADSVKGRFTISRDNSKNTLYLQMNSLRAEDTAVYYCAIYTGRWEPFDYWGQGTLVTVSSASTSGPSDIQMTQSPSSLSASVGDRVTITCRASQSIIKHLKWYQQKPGKAPKLLIYGASRLQSGVPSRFSGSGSGTDFTLTISSLQPEDFATYYCQQGARWPQTFGQGTKVEIKRAAAEQKLISEEDLN
notes: as for B1
